± gives the standard deviation.

The data set in a line: protein stability index of a GFP-peptide fusion (GPS, HEK-293T) (PSI 1-6); higher = more stable.
Where [1] appears, read: treatment: DMSO, c terminus: a fixed tail appended.
Where [2] appears, read: treatment: MLN4924 1 uM, 8 h, c terminus: a fixed tail appended.
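Also: 24-mer peptide tiles fused after GFP, lentivirally expressed, FACS-sorted into six equal bins by GFP/DsRed ratio, decoded by Illumina sequencing, PSI is the read-weighted mean bin number.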

Take NESALVKEKELSIELANIRDEVAF [MTUS2]: the protein stability index stood at 4.42 ± 0.28 under setting [1] and 4.33 ± 0.46 under setting [2].

On to NEVRRGSPVLLGWVEQAYADKCVC [TIAF1], for which the protein stability index was determined as 2.64 ± 0.087 under setting [1] and 2.88 ± 0.27 under setting [2].

Regarding NFFTTLRVVHHKFHSQRHGSKKD [TMEM120A], the protein stability index is 3.32 ± 0.33 (treatment: DMSO, c terminus: native) and 3.3 ± 0.45 (treatment: MLN4924 1 uM, 8 h, c terminus: native).

For NIHENKRTGSLFKIWLVVPSLLEL [KLHDC10], the protein stability index stood at 3.16 ± 0.49 under setting [1] and 3.15 ± 0.42 under setting [2].

For NIHMNFTHICRSHNSINQSLDESV [SLC2A12], the protein stability index reads like this: under setting [1], 2.56 ± 0.25; under setting [2], 2.54 ± 0.23.

With NILFDFVKKKKEEGVIDSSDKEIV [EIF5], the protein stability index runs as follows: under setting [1], 3.65 ± 0.12; under setting [2], 3.74 ± 0.27.

As for NISCFFRLVDRDSVWGYDLGLRSL [MYORG], the protein stability index by setting is: under setting [1], 3.01 ± 0.41; under setting [2], 2.95 ± 0.7.

Consider NKALSIILHLICLLEKVPCTLEQD [FEM1C], for which the protein stability index reads like this: under setting [1], 2.87 ± 0.25; under setting [2], 3.13 ± 0.71.

Take NKKGFWSYGPVILVVLVVAVVASS [TOR1AIP2]: the protein stability index runs as follows: under setting [1], 1.78 ± 0.42; under setting [2], 1.83 ± 0.042.

Regarding NKQKCVERNEVRNVFKELQIMQGL [STK32A], the protein stability index stood at 2.94 ± 0.4 under setting [1] and 2.93 ± 0.24 under setting [2].

With NLLLQPTTNPHTSASHRPCVNGDV [SMG5], the protein stability index was determined as 3.48 ± 0.23 under setting [1] and 3.54 ± 0.43 under setting [2].

NNPFAKGFRGSDDMELHRMSRMQS [TBX5]: the protein stability index reads like this: under setting [1], 4.15 ± 0.33; under setting [2], 4.06 ± 0.22.

NPGTDAVAQTSLEEFNVLEMEVMR [FATE1] gave a protein stability index under setting [1] of 4.71 ± 0.18 and a protein stability index under setting [2] of 4.68 ± 0.13.

Regarding NQAGFTLHSAIYAARPDVKCVVHI [ADD1], the protein stability index by setting is: under setting [1], 3.1 ± 0.42; under setting [2], 3.15 ± 0.62.

Regarding NQEITKAFHVRRTNRVKECLAKGT [RHOBTB2], the protein stability index came to 3.41 ± 0.51 under setting [1] and 3.64 ± 0.7 under setting [2].

Take NSFSLNSSISSSARRTTRSEPIRR [MAP2]: the protein stability index under setting [1] was found to be 4.46 ± 0.27 and the protein stability index under setting [2] amounted to 4.53 ± 0.13.

Regarding NSIAHYRQVNIRTANCTTANQNCV [KCNA1], the protein stability index was 3.17 ± 0.17 under setting [1] and 3.19 ± 0.27 under setting [2].

With NSSQLLLRRHAGLLDGLARRVGIL [SCARA5], the protein stability index is 2.72 ± 0.027 under setting [1] and 2.69 ± 0.28 under setting [2].

In the case of NSVCSKFRKEIKSKSADNQEYFER [RHOBTB1], the protein stability index runs as follows: under setting [1], 4.26 ± 0.19; under setting [2], 4.45 ± 0.32.

For NTNLHTHQRTHTGEKPFTCHECGK [ZNF75A], the protein stability index by setting is: under setting [1], 4.51 ± 0.14; under setting [2], 4.54 ± 0.18.

As for NTTLTQYQLLATHVPTVWAIDQYR [RHOBTB1], the protein stability index by setting is: under setting [1], 2.75 ± 0.56; under setting [2], 2.41 ± 0.43.

For NVEDHINPKLPNISLDVLQPSFPE [POMT2], the protein stability index reads like this: under setting [1], 4.58 ± 0.22; under setting [2], 4.7 ± 0.15.

For the sequence NVLSVNLPDNFTLKEDGMETVPWF [TPH1], the protein stability index runs as follows: under setting [1], 2.75 ± 0.21; under setting [2], 2.92 ± 0.17.

For the sequence NYMVQTEDQYIFIHDALLEAVTCG [PTPRD], the protein stability index was 2.25 ± 0.35 under setting [1] and 2.13 ± 0.37 under setting [2].

As to PAITATLLDFMCRIIPNFYPPLEG [INTS3], the protein stability index reads like this: under setting [1], 3.07 ± 0.13; under setting [2], 3.1 ± 0.32.

For the sequence PAPPPPAGGATAWGDLLGEDSLAA [SNAP91], the protein stability index runs as follows: under setting [1], 5.13 ± 0.22; under setting [2], 5.11 ± 0.13.

In the case of PATSPLVLAIPRRLRVELECEEGE [TRIM35], the protein stability index came to 4.92 ± 0.22 under setting [1] and 4.78 ± 0.13 under setting [2].

For the sequence PAVEACENRRKVLYQRAPRNIHRH [TCF25], the protein stability index is, setting by setting: under setting [1], 3.88 ± 0.23; under setting [2], 3.81 ± 0.15.

With PAVENKQQIGDAIRMIVRGTLGSC [PLK2], the protein stability index by setting is: under setting [1], 3.03 ± 0.32; under setting [2], 3.03 ± 0.19.

Regarding PDGVCLSGGRGPQGDKAIREQGPR [PBXIP1], the protein stability index under setting [1] is 5.21 ± 0.14 and the protein stability index under setting [2] was found to be 4.88 ± 0.35.

With PDIRTKDIEDVFYKYGAIRDIDLK [SRSF1], the protein stability index is 3.59 ± 0.12 under setting [1] and 3.62 ± 0.24 under setting [2].

Take PESETSILLSWTPPRSDTIANYEL [PTPRD]: the protein stability index is, setting by setting: under setting [1], 3.09 ± 0.35; under setting [2], 2.96 ± 0.39.

PETHIFTAPEEVPKVSDQALVSAH [DMRTC1]: the protein stability index runs as follows: under setting [1], 4.96 ± 0.34; under setting [2], 4.92 ± 0.11.

Take PFKFHMLHSGLVHGLAFWFDVAFI [CARM1]: the protein stability index amounted to 2.75 ± 0.15 under setting [1] and 2.97 ± 0.2 under setting [2].

On to PFSEFFKLRFNRKKKGMYRKAITE [PWWP2B], for which the protein stability index by setting is: under setting [1], 2.35 ± 0.43; under setting [2], 2.9 ± 0.27.

With PFTVSPNTHVSQVFNLFRTMGLRH [CLCN6], the protein stability index reads like this: under setting [1], 2.39 ± 0.45; under setting [2], 2.45 ± 0.38.

Regarding PGAHGRFMPQGAGGHTREARIQTL [RSAD1], the protein stability index by setting is: under setting [1], 3.63 ± 0.35; under setting [2], 3.67 ± 0.29.

Consider PGNGTHGLSPEEKEQLSNDRETQE [ELOA2], for which the protein stability index was determined as 5.73 ± 0.074 under setting [1] and 5.75 ± 0.16 under setting [2].

Take PGSCGAGAPSPGSSDVSTAGTGAS [ELF3]: the protein stability index is 4.98 ± 0.29 under setting [1] and 5.08 ± 0.17 under setting [2].

Consider PHKERYFDRVDENNPEYLRERNMA [ADD1], for which the protein stability index runs as follows: under setting [1], 4.47 ± 0.36; under setting [2], 4.69 ± 0.14.

With PIGCDGVLFSTHTLDKCGICQGDG [ADAMTSL2], the protein stability index runs as follows: under setting [1], 3.62 ± 0.26; under setting [2], 3.79 ± 0.47.

As to PKFKKWCDDYFFIAHRGERRGIGG [CPOX], the protein stability index reads like this: under setting [1], 2.54 ± 0.14; under setting [2], 2.56 ± 0.26.

As to PLCNFNITESFTELARIVLLRHGM [RAB40B], the protein stability index turned out to be 2.8 ± 0.87 under setting [1] and 2.19 ± 0.97 under setting [2].

Take PLFYPGIRAGRKNAAPLTIRPPTD [TRIM39]: the protein stability index by setting is: under setting [1], 3.56 ± 0.25; under setting [2], 3.58 ± 0.15.

As for PLLCPGCQGQPQGKAVVSHSKGHK [ELOA2], the protein stability index by setting is: under setting [1], 4.12 ± 0.43; under setting [2], 4.53 ± 0.42.

Regarding PLRSSLPISLQATPATPATLSASS [TFE3], the protein stability index reads like this: under setting [1], 4.47 ± 0.1; under setting [2], 4.57 ± 0.14.

Regarding PLSPPTAPDRATAVATASRLGPYV [TRIB3], the protein stability index reads like this: under setting [1], 4.72 ± 0.26; under setting [2], 4.65 ± 0.091.

In the case of PNHLGGGAVVLGAESHASKDVAID [STX5], the protein stability index amounted to 5.1 ± 0.37 under setting [1] and 5.15 ± 0.17 under setting [2].

Turning to PPKRMLGADREFIEARRRALKRFV [SNX8], the protein stability index was 3.36 ± 0.43 under setting [1] and 3.62 ± 0.17 under setting [2].

As to PPLWAASAAGHLDVVRSLLRRGAS [FEM1A], the protein stability index amounted to 3.55 ± 0.28 under setting [1] and 3.43 ± 0.28 under setting [2].

For the sequence PPPPPGLPSDGDHQVPTTAGNKAA [WASL], the protein stability index was 5.46 ± 0.33 under setting [1] and 5.43 ± 0.12 under setting [2].

On to PPPPPPPPAELKAEPGFEPADCKR [CEBPB], for which the protein stability index amounted to 5.52 ± 0.16 under setting [1] and 5.4 ± 0.28 under setting [2].

For PPYSRLSPRDEYKPLDLSDSTLSY [SMAD6], the protein stability index is, setting by setting: under setting [1], 3.89 ± 0.18; under setting [2], 3.84 ± 0.24.

For the origin of these results see the supplement of paper PMC10567573.
